According to article PMC5491523 (2017):

B1: CIB2-V5 (calcium and integrin-binding protein 2, V5 tagged, wild type) [human] / TMC1-EGFP (EGFP tagged human full length TMC1) [human] (parent complex)
chain 1: MGNKQTIFTEEQLDNYQDCTFFNKKDILKLHSRFYELAPNLVPMDYRKSPIVHVPMSLIIQMPELRENPFKERIVAAFSEDGEGNLTFNDFVDMFSVLCESAPRELKANYAFKIYDFNTDNFICKEDLELTLARLTKSELDEEEVVLVCDKVIEEADLDGDGKLGFADFEDMIAKAPDFLSTFHIRI
chain 2: MSPKKVQIKVEEKEDETEESSSEEEEEVEDKLPRRESLRPKRKRTRDVINEDDPEPEPEDEETRKAREKERRRRLKRGAEEEEIDEEELERLKAELDEKRQIIATVKCKPWKMEKKIEVLKEAKKFVSENEGALGKGKGKRWFAFKMMMAKKWAKFLRDFENFKAACVPWENKIKAIESQFGSSVASYFLFLRWMYGVNMVLFILTFSLIMLPEYLWGLPYGSLPRKTVPRAEEASAANFGVLYDFNGLAQYSVLFYGYYDNKRTIGWMNFRLPLSYFLVGIMCIGYSFLVVLKAMTKNIGDDGGGDDNTFNFSWKVFTSWDYLIGNPETADNKFNSITMNFKEAITEEKAAQVEENVHLIRFLRFLANFFVFLTLGGSGYLIFWAVKRSQEFAQQDPDTLGWWEKNEMNMVMSLLGMFCPTLFDLFAELEDYHPLIALKWLLGRIFALLLGNLYVFILALMDEINNKIEEEKLVKANITLWEANMIKAYNASFSENSTGPPFFVHPADVPRGPCWETMVGQEFVRLTVSDVLTTYVTILIGDFLRACFVRFCNYCWCWDLEYGYPSYTEFDISGNVLALIFNQGMIWMGSFFAPSLPGINILRLHTSMYFQCWAVMCCNVPEARVFKASRSNNFYLGMLLLILFLSTMPVLYMIVSLPPSFDCGPFSGKNRMFEVIGETLEHDFPSWMAKILRQLSNPGLVIAVILVMVLAIYYLNATAKGQKAANLDLKKKMKMQALENKMRNKKMAAARAAAAAGRQ

Variants of: B1
Assay: FRET; cells co-expressing EGFP tagged human TMC1 (donor) and V5 tagged human CIB2; parent: 22; read off a plot

Variant | response [%]
chain 1 MGNKQTIFTEEQLDNYQDCTFFNKKDILKLHSRFYELAPNLVPMDYRKSPIVHVPMSLIIQMPELRENPFKERIVAAFSEDGEGNLTFNDFVDMFSVLWESAPRELKANYAFKIYDFNTDNFICKEDLELTLARLTKSELDEEEVVLVCDKVIEEADLDGDGKLGFADFEDMIAKAPDFLSTFHIRI [chain 1 C99W] | ~5
chain 1 MGNKQTIFTEEQLDNYQDCTFFNKKDILKLHSRFYELAPNLVPMDYRKSPIVHVPMSLIIQMPELRENPFKERIVAAFSEDGEGNLTFNDSVDMFSVLCESAPRELKANYAFKIYDFNTDNFICKEDLELTLARLTKSELDEEEVVLVCDKVIEEADLDGDGKLGFADFEDMIAKAPDFLSTFHIRI [chain 1 F91S] | ~3
chain 1 MGNKQTIFTEEQLDNYQDCTFFNKKDILKLHSRFYELAPNLVPMDYRKSPIVHVPMSLIIQMPELRENPFKERIVAAFSEDGEGNLTFNDFVDMFSVLCESAPRELKANYAFKIYDFNTDNFTCKEDLELTLARLTKSELDEEEVVLVCDKVIEEADLDGDGKLGFADFEDMIAKAPDFLSTFHIRI [chain 1 I123T] | ~18
chain 1 MGNKQTIFTEEQLDNYQDCTFFNKKDILKLHSRFYELAPNLVPMDYRKSPIVHVPMSLIIQMPELRENPFKERIVAAFSEDGEGNLTFNDFVDMFSVLCESAPRELKANYAFKIYDFNTDNFICKEDLELTLARLTKSELDEEEVVLVCDKVIEEADLDGDGKLGFADFEDMIAKAPDFLSTFHIWI [chain 1 R186W] | ~19
chain 1 MGNKQTIFTEEQLDNYQDCTFFNKKDILKLHSRFYELAPNLVPMDYRKSPIVHVPMSLIIQMPDLRENPFKERIVAAFSEDGEGNLTFNDFVDMFSVLCESAPRELKANYAFKIYDFNTDNFICKEDLELTLARLTKSELDEEEVVLVCDKVIEEADLDGDGKLGFADFEDMIAKAPDFLSTFHIRI [chain 1 E64D] | ~6.5
chain 1 MGNKQTIFTEEQLDNYQDCTFFNKKDILKLHSRFYELAPNLVPMDYRKSPIVHVPMSLIIQMPELWENPFKERIVAAFSEDGEGNLTFNDFVDMFSVLCESAPRELKANYAFKIYDFNTDNFICKEDLELTLARLTKSELDEEEVVLVCDKVIEEADLDGDGKLGFADFEDMIAKAPDFLSTFHIRI [chain 1 R66W] | ~19
